Primed or numbered codes have the meaning given here. Where no end group is shown, it is not given here. Cy5 = Cy5 fluorophore (fluorescent dye); NODAGA′ = chelator

Among the data in PMC8659110 (2021) are IC50 values, retold here.

The target in the assay is NRP-1 recombinant chimeric protein ( (recombinant human/rat NRP-1 …, UniProt O14786 22-856)). As to the kind of experiment: ELISA; competition with biotinylated VEGF-165.
Chain of NRP-1 recombinant chimeric protein ( (O14786 22-856, change not shown): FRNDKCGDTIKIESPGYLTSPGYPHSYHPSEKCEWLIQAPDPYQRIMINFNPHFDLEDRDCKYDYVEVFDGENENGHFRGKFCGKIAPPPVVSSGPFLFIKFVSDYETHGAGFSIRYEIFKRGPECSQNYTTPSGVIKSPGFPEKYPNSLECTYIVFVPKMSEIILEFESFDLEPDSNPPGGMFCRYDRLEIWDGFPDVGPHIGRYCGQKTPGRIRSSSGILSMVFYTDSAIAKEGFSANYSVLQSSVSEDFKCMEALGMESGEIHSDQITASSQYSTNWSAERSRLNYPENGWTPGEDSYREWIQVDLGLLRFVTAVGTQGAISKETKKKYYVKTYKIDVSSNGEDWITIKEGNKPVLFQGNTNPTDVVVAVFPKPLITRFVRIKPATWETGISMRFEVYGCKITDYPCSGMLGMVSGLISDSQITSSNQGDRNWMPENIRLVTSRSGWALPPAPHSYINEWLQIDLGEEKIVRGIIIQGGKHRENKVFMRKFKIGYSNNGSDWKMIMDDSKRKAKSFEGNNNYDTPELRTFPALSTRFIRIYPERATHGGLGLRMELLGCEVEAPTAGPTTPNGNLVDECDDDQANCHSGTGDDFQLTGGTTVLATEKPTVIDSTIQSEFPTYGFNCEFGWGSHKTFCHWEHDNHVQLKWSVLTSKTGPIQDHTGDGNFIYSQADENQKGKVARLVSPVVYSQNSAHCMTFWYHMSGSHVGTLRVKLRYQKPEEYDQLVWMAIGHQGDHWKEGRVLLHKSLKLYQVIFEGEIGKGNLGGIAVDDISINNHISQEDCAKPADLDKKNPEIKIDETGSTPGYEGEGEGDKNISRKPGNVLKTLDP

Broadly, the IC50 is the concentration that gives 50% inhibition. For the molecule KDKPPR [KDKPPR peptide], the IC50 came out at 2 µM.
Take {NODAGA′}-K(Cy5)DKPPR (also: NODAGA complexed with natGa) [^natGa-NODAGA-K(Cy5)DKPPR]: the half-inhibitory concentration (IC50) was found to be 0.1 µM.
